Reference: patent US20220332804A1 (CSL INNOVATION, published 2022)

Key:
Assay in all cases: SPR, antibody captured, C2 as analyte;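 further: biacore SPR at 37 °C, anti-C2 mAbs captured via goat anti-human IgG on CM5 chips, double-referenced sensorgrams fit to a 1:1 kinetic or steady-state model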
human C2 A436S = molecular target: T1, human C2 A436S (human, UniProt P06681 21-752)
T1 sequence: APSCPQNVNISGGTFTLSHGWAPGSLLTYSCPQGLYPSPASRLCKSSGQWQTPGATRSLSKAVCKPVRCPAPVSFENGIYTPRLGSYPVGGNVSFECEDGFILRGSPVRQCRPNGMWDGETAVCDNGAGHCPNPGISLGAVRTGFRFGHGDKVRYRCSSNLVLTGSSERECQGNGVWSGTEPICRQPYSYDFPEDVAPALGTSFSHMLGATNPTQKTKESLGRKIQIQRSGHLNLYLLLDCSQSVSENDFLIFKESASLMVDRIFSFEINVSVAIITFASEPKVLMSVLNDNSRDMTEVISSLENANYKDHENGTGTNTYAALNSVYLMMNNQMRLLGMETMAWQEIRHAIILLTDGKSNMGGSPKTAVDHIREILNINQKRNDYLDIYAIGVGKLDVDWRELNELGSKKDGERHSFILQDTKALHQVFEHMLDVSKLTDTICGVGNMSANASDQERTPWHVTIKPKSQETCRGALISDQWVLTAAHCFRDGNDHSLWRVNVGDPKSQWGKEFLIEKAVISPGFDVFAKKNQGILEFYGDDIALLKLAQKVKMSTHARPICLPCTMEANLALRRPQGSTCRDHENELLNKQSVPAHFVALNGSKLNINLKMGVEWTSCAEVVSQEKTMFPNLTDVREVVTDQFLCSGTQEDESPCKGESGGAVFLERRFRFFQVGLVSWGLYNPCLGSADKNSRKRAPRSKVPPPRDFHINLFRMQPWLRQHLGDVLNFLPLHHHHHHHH

human C2 K415A = molecular target: T2, human C2 K415A (human, UniProt P06681 21-752)
T2 sequence: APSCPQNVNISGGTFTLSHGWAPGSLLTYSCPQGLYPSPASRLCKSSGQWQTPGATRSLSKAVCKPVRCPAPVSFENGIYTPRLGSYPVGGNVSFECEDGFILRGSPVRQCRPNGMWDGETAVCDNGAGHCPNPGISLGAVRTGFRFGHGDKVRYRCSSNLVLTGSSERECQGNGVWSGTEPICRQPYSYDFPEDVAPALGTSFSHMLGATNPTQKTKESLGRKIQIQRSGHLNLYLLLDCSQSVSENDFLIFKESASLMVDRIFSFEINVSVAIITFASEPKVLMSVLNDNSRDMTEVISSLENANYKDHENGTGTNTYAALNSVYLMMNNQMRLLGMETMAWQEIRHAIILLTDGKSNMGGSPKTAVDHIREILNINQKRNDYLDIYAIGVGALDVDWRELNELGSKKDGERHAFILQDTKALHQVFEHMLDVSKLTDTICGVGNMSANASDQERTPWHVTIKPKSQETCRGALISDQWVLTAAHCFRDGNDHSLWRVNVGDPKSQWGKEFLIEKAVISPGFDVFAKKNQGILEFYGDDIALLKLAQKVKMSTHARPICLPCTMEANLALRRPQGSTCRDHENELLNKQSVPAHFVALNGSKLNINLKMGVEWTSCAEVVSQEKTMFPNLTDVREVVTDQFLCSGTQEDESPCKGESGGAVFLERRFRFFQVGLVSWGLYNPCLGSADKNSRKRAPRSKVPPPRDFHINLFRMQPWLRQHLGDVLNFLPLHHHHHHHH

human C2 S456A = molecular target: T3, human C2 S456A (human, UniProt P06681 21-752)
T3 sequence: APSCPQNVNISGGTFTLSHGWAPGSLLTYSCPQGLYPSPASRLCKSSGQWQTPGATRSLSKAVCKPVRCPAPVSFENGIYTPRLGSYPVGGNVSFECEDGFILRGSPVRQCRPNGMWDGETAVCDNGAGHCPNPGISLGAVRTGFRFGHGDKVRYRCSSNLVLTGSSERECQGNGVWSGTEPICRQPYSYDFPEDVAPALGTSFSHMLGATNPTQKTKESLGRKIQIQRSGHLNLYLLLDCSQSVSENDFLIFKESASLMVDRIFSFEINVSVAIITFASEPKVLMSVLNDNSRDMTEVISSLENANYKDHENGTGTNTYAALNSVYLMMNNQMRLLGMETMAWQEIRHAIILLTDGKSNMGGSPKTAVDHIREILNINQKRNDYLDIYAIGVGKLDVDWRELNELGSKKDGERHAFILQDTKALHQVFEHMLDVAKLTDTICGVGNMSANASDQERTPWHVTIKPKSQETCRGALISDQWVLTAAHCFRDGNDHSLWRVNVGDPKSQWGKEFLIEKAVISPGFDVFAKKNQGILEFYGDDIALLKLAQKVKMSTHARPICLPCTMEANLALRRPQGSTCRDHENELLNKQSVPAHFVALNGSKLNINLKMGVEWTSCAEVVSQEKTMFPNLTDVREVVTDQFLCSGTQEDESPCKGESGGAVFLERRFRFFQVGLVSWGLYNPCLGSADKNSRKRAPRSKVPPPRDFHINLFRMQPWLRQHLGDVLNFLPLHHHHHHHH

human C2 E556A = molecular target: T4, human C2 E556A (human, UniProt P06681 21-752)
T4 sequence: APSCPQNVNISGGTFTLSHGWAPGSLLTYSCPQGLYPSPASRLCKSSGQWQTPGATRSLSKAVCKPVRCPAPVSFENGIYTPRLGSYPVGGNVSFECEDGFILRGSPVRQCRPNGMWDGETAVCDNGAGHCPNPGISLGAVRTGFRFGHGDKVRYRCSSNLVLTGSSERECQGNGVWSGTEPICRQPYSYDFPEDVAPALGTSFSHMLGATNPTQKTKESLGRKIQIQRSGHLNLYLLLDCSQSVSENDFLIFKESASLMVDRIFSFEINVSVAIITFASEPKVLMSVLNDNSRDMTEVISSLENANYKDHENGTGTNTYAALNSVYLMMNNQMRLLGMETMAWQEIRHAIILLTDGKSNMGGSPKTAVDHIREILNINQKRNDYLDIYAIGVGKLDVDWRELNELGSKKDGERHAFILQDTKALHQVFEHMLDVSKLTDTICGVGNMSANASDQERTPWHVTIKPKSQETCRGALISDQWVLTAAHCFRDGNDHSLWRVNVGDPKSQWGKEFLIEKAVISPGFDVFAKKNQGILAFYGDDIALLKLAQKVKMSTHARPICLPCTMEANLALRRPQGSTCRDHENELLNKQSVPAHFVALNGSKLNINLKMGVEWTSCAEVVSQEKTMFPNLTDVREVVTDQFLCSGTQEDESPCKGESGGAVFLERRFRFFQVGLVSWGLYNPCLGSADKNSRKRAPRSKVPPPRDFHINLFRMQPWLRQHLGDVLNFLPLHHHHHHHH

B1: RF16-226 (antibody, human IgG4 S228P, lambda)
heavy: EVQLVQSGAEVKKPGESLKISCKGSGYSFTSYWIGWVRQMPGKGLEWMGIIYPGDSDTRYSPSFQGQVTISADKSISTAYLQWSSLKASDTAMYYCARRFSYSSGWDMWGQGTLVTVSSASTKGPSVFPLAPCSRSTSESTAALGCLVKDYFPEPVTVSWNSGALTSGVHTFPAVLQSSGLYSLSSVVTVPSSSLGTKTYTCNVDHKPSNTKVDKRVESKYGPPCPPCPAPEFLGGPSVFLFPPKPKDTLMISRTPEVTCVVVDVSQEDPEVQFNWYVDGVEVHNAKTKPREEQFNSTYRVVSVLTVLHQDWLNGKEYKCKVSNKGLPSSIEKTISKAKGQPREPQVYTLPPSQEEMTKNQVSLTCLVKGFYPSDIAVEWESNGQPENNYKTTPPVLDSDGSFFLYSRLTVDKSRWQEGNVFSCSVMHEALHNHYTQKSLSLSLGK
light: SYELTQPPSVSVSPGQTARITCSGDALTSKYVAWYQQKSGLAPLLVIYEDTRRPSGIPAKFSGSSSGSVATLTISGAHGDDEADYYCYSTDASGHQRVFGGGTKLTVLSQPKAAPSVTLFPPSSEELQANKATLVCLISDFYPGAVTVAWKADGSPVKAGVETTKPSKQSNNKYAASSYLSLTPEQWKSHRSYSCQVTHEGSTVEKTVAPTECS
notes: pH-dependent anti-C2 antibody from a phage display library; also called WT
In the case of B1, the Kd (human C2 A436S) is reported as 6.2 nM, the Kd (human C2 K415A) is reported as 11.7 nM and the Kd (human C2 S456A) is reported as 71.8 nM. The Kd (human C2 E556A) was 5.9 nM.
